Data as given in patent publication US12577311 (dated 2026).
Residue numbers refer to the chain shown, from its start. Read-outs that look alike come from different tables or passages of the source. Values belong to the binder of their own block, whether it stands above or below them.

Legend:
[1] = molecular target: T1, CAIX (UniProt Q16790 38-414)
[2] = molecular target: T1, CAIX; remark: listed apart in the source
[3] = molecular target: T1, CAIX; remark: listed apart in the source
[4] = molecular target: T2, PE labeled CAIX protein (UniProt Q16790 38-414); test: FACS binding
[5] = molecular target: T2, PE labeled CAIX protein; test: FACS binding; remark: listed apart in the source

B2: G57 (antibody, V domains shown)
VH: QVQLVQSGGGVVQPGRSLRLSCAASGFTFSSYGMHWVRQAPGKGLEWVAVISYDGSNKYYADSVKGRFTISRDNSKNTLYLQMNSLRAEDTAVYYCAREAPYSSSLDAFDIWGQGTMVTVSS
VL: QSVLTQPPSVSGAPGQRVTISCTGSSSNIGRGYNVHWYQQLPGTAPKLLIYGNSNRPSGVPDRFSGSSSGNTASLTITGAQAEDEADYYCHSRDNNGHHIFGGGTKLTVLS
Kd [1]: 4.25 nM
Kd [2]: 4.25 nM
Kd [3]: 4.25 nM

B4: G40 (antibody, V domains shown)
VH: QVQLVQSGGGLVQPGGSLRLSCAASGFTFSSYAMSWVRQAPGKGLEWVSAISGSGGSTYYADSVKGRFTISRDNSKNTLYLQMNSLRAEDTAVYYCATYGDYGSLDYWGQGTLVTVSS
VL: QSVLTQPPSVSGAPGQRVTISCTGSSSNIGAGYDVHWYQQLPGTAPKLLIYANNNRPSGVPDRFSGSKSGTSASLAITGLQAEDEADYYCQSYDSSLRAWVFGGGTKLAVLG
Kd [1]: 21.8 nM
Kd [2]: 21.8 nM
Kd [3]: 21.8 nM

B6: G119 (antibody, V domains shown)
VH: QVQLVQSGGGLVQPGGSLRLSCAASGFPFSSYAMSWVRQAPGKGLEWVSAISANGGTTYYADSVKGRFTISRDNSKNTLYLQMNSLRAEDTAVYYCANNGNYRGAFDIWGQGTMVIVSS
VL: B4 VL with A52G, N54T, T78I, E83D, S96T, A99V, V101M, A109T
Kd [1]: 1.49 nM
Kd [2]: 1.49 nM
Kd [3]: 1.49 nM

B7: G10 (antibody, V domains shown)
VH: B6 VH with I116T
VL: QSVLTQPPSVSGAPGQRVTISCTGSSSNIGAGYDVHWYQQLPGTAPKLLIYGNSNRPSGVPDRFSGSKSGSSASLAITGLQAEDEAHYYCQSYDRSLSWVFGGGTKLTVLG
Kd [1]: 1.62 nM
Kd [2]: 1.62 nM
Kd [3]: 1.62 nM

B9: G106 (antibody, V domains shown)
VH: B6 VH with Q1E, P28T, M114T, I116T
VL: B4 VL with Y33F, K47R, A52G, A86T, Y89F, R98S, L108V, A109T, G112R
Kd [1]: 3.2 nM
Kd [2]: 3.2 nM
Kd [3]: 3.2 nM

B14: G27 (antibody, V domains shown)
VH: QVTLKESGGGVVQPGTSLRLSCAASGFTFSNYAMTWVRQAPGKGLEWVGLISYDGSVTHYTDSVKGRFTISRDNAKNSLYLQMNTLRADDTAVYYCARGSGYQEHWGQGTLVTVSS
VL: LPVLTQPPSVSVAPGQTARITCGGNNIGSKSVEWYQQKPGQAPVLVIYYDSDRPSGIPERFSGSNSGNTATLTISRVEAGDEADYYCQVWDSSSDHHVVFGGGTKLTVLG
Kd [1]: 25.1 nM
Kd [2]: 25.1 nM
Kd [3]: 25.1 nM

The remaining lines, values ahead:

Kd [1]: 40.3 nM
Kd [2]: 40.3 nM
Kd [3]: 40.3 nM
B1: G125 (antibody, V domains shown)
VH: EVQLVESGGGVVQPGRSLRLSCAASGFTFSSYGMHWVRQAPGKGLEWVSAISGSGGSTYYADSVKGRFTISRDNAKNTLYLQMNSLRAEDTAVYYCARAAVTGGFDPWGQGTLVTVSS
VL: QPGLTQPPSVSVAPGQTARITCGGDNIGRKSVHWYQQRPGQAPILVIRDDRDRPSGIPERFSGSSSVNTATLIISRVEAGDEADYYCQVWDSSSKHYVFGPGTKVTALG

EC50 [4]: 0.132 µg/mL
EC50 [5]: 0.132 µg/mL
B3: anti-CAIX (G36) CAR (scFv, V domains shown)
VH: B6 VH with Q1E, L11V, I116T
VL: B4 VL with Y33F, A52G, N54T, A86T, S96R, R98S, A109T

Kd [1]: 3.22 nM
Kd [2]: 3.22 nM
Kd [3]: 3.22 nM
B5: G36 (antibody, V domains shown)
VH: B6 VH with Q1E, L11V, I116T
VL: B4 VL with Y33F, A52G, N54T, A86T, S96R, R98S, A109T

Kd [1]: 12.5 nM
Kd [2]: 12.5 nM
Kd [3]: 12.5 nM
B8: G45 (antibody, V domains shown)
VH: B6 VH with Q13R, M114T, I116T
VL: QSVLTQPPSVSGAPGQRITISCTGSSSNIGAGYDVHWYQQVPGKAPKVVIYGNNNRPSGVPDRFSGSKSGASASLAITGLQTEDEADYYCQSYDKSLTWVFGGGTKVTVLG

Kd [1]: 1.89 nM
Kd [2]: 1.89 nM
Kd [3]: 1.89 nM
B10: G37 (antibody, V domains shown)
VH: B6 VH with L11V, I116T
VL: B4 VL with V18I, S26R, G32D, A86T, Y89F, R98S, L108V, A109T

Kd [1]: 99.6 nM
Kd [2]: 99.6 nM
Kd [3]: 99.6 nM
B11: G9 (antibody, V domains shown)
VH: B4 VH with V5Q, Q6E, T98R, Y99S, G100H, D101S, Y102S, S104G, L105F
VL: B4 VL with A31R, D34N, A52G, N54T, A86G, R98S, A109T

Kd [1]: 25.9 nM
Kd [2]: 25.9 nM
Kd [3]: 25.9 nM
B12: G6 (antibody, V domains shown)
VH: QVQLVQSGGGLVQPGGSLRLSCAASEFTFGTYAMTWVRQAPGKGLEWVSAVSGSGGSTYYADSVKGRFTISRDNSRNTLYLQMNSLRADDTAVYYCARGPVLRYGFDIWGQGTMVIVSS
VL: B4 VL with V18I, S26R, G32D, D62G, G66A, T78S

Kd [1]: 3.43 nM
Kd [2]: 3.43 nM
Kd [3]: 3.43 nM
B13: G39 (antibody, V domains shown)
VH: not shown
VL: QSVLTQPPSVSGAPGQRVTISCTGSSSNIGRGYNVHWYQQLPGTAPKLLIYDNTNRPSGVPARFSGSKSATSASLAITGLQADDEADYYCQSYDSGLRWVFGGGTKLTLLR
